Assay results reported in patent publication US20060034863A1 (CHEMOCENTRYX, published 2006).

T1: formyl peptide receptor like 1 (FPRL1) (human, UniProt P25090 1-351)
T1 sequence (looked up): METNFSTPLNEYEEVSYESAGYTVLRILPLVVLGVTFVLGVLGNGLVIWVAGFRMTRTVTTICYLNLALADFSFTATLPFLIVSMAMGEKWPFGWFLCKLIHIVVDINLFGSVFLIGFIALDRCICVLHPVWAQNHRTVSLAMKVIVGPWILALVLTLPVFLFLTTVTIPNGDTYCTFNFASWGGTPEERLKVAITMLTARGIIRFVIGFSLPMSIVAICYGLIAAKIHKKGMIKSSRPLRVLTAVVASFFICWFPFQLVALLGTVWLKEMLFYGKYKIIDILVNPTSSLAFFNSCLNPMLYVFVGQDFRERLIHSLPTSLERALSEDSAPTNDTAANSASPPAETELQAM

T2: human chemokine receptor CCR1 (human, UniProt P32246 1-355)
T2 construct: whole, on cells; also called HEK293-CCR1 transfectants
T2 sequence (looked up): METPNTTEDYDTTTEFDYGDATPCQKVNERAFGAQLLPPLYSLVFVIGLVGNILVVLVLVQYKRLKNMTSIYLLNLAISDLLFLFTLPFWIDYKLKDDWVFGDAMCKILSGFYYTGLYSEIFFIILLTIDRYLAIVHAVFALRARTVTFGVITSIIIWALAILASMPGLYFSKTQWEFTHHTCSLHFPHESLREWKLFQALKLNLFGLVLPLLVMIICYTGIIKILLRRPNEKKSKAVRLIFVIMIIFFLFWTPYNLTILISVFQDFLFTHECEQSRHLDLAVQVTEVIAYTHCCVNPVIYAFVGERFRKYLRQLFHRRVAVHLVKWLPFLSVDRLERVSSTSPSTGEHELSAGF

B1: CKβ8(25-99) (ligand)
chain: RFHATSADCCISYTPRSIPCSLLESYFETNSECSKPGVIFLTKKGRRFCANPSDKQVQVCMRMLKLDTRIKTRKN
notes: Human recombinant chemokine bought from R&D Systems; also called CCL23 variant; CKβ (25-99)
B2: CKβ8-1(1-116) (ligand)
chain: RVTKDAETEFMMSKLPLENPVLLDMLWRRKIGPQMTLSHAAGFHATSADCCISYTPRSIPCSLLESYFETNSECSKPGVIFLTKKGRRFCANPSDKQVQVCMRMLKLDTRIKTRKN
notes: Human recombinant chemokine bought from R&D Systems; also called CCL23 variant
B3: MIP-1α (ligand, human, UniProt P10147 27-92, looked up)
chain: ADTPTACCFSYTSRQIPQNFIADYFETSSQCSKPGVIFLTKRSRQVCADPSEEWVQKYVSDLELSA
notes: also called macrophage inflammatory protein
B4: CKβ8(1-99) (ligand)
chain: RVTKDAETEFMMSKLPLENPVLLDRFHATSADCCISYTPRSIPCSLLESYFETNSECSKPGVIFLTKKGRRFCANPSDKQVQVCMRMLKLDTRIKTRKN
notes: Human recombinant chemokine bought from R&D Systems; also called CCL23 variant; CKβ (1-99)
B5: CKβ8-1(25-116) (ligand)
chain: MLWRRKIGPQMTLSHAAGFHATSADCCISYTPRSIPCSLLESYFETNSECSKPGVIFLTKKGRRFCANPSDKQVQVCMRMLKLDTRIKTRKN
notes: Human recombinant chemokine bought from R&D Systems; NH2-terminal truncated form of CKβ8-1; also called CCL23 variant

How the values were obtained:
[1] = molecular target: T1, formyl peptide receptor like 1 (FPRL1); assay: cell-based or functional assay
[2] = molecular target: T2, human chemokine receptor CCR1; assay: displacement of 125I-MIP-1α from HEK293-CCR1 cells, filter binding, 3 h at 4°C
Protocol: (§1) The binding characteristics of CCL23 variants was compared in human CCR1 expressing cells. […] Reactions mixtures were aspirated onto PEI-treated GF/B glass filters using a cell harvester (Packard). The filters were washed twice (25 mM HEPES, 500 mM NaCl, 1 mM CaCl₂, 5 mM MgCl₂, adjusted to pH 7.1). Scintillant (MicroScint-10; 35 μl) was added to dried filters and the filiters counted in a Packard Topcount scintillation counter. Data were analyzed and plotted using Prism software (GraphPad Software, San Diego, Calif.).

[3] = molecular target: MIP-1α binding sites on human monocytes (human); assay: displacement of 125I-MIP-1α from human monocytes, filter binding
[4] = molecular target: T2, human chemokine receptor CCR1; assay: displacement of 125I-MIP-1α from HEK293-CCR1 cells
Protocol: as §1

[5] = molecular target: T1, formyl peptide receptor like 1 (FPRL1); assay: 125I-WKYMVm displacement on FPRL1-L1.2 transfectants and human monocytes
Source text: (§2) The IC50 for each interaction was derived from non-linear least squares curve fitting of the data by using Prism software (GraphPad Software).

[6] = molecular target: MIP-1α binding sites on human monocytes (human); assay: 125I-MIP-1α competition binding on human monocytes against HEK293-CCR1 cells
[7] = molecular target: T1, formyl peptide receptor like 1 (FPRL1); assay: displacement of 0.01 nM 125I-WKYMVm from L1.2 FPRL1 cells, 3 h at 4°C
Source text: as §2

[8] = molecular target: T1, formyl peptide receptor like 1 (FPRL1); assay: displacement of 0.01 nM 125I-WKYMVm from human monocytes, 3 h at 4°C
Source text: as §2

[9] = molecular target: T1, formyl peptide receptor like 1 (FPRL1); assay: cell-based or functional assay; remark: listed apart in the source

Binder | Induction of Calcium Flux in FPRL1 L1.2 Cells (IC 50) [1] [nM] | IC50 [2] [nM] | IC50 [3] [nM] | also measured
MLWRRKIGPQMT [SHAAGtide truncated variant CCXP5 (SEQ ID NO: 5)] | 7.4 |  |  | 
B1 |  | 1.34 | 0.25 | fold IC50 change against CKβ8(1-99) [4]: 40 fold; binding result [5]: no binding
MLWRRKIGPQM [SHAAGtide truncated variant CCXP8 (SEQ ID NO: 8)] | 45 |  |  | 
B2 |  | 206 | 55 | binding result [5]: no binding
MLWRRKIGPQMTLSHAAY [SHAAYtide (SEQ ID NO: 6)] | 38 |  |  | 
RRKIGPQMTLSHAAG [SHAAGtide truncated variant CCXP2 (SEQ ID NO: 2)] | > 50000 |  |  | 
B3 |  | 0.54 | 0.27 | 
MLWRRKIGPQMTLSHAAG [SHAAGtide (SEQ ID NO: 1)] | 150 |  |  | 
MLWRRKIGPQMTLSH [SHAAGtide truncated variant CCXP3 (SEQ ID NO: 3)] | 68 |  |  | 
B4 |  | 64 | 10.3 | binding result [5]: no binding
B5 | 11 | 112 | 5.1 | fold higher MIP-1α displacement activity on monocytes than on HEK293-CCR1 cells [6]: > 10 fold; IC50 [7]: 196 nM; IC50 [8]: 31 nM; fold IC50 change against CKβ8-1(1-116) [4]: 1 fold; EC50 of calcium flux dose response in FPRL1-L1.2 transfectants [9]: 10 to 20 nM
